These results are taken from patent US20130288908A1 (MITSUBISHI TANABE PHARMA, published 2013).

In one test the target is T1, Her-2 (human, UniProt P04626 23-652).
T1 construct: Bought protein (R&D systems); also called human EGFR-2 (Her-2); Her2 antigen
Put plainly: ELISA, Her-2 immobilized at 1 µg/ml, detection with HRP-labeled anti-FLAG antibody, OD 405 nm. For orientation: In an ELISA, binding on a coated surface is turned into a signal by an enzyme label.

The target of the next test is T2, biotinylated Her-2 (human, UniProt P04626 23-652, biotinylated with Sulfo-NHS-SS-Biotin (sites not given)).
T2 construct: also called biotinylated antigen
The experiment in a line: sandwich ELISA, biotinylated antigen captured on the stAv coating (BSA coating as control), Fab detected with HRP-labeled anti-FLAG antibody, OD 405 nm.

B1: Fab-TT (Fab)
chain 1: MDIQMTQSPSSLSASVGDRVTITCRASQDIKNYLSWYQQQPGNAPKPLIYAGSNRQSGVPSRFSGSGSETDFTLTISSLQPEDFATYYCQQTYIYPITFGQGTKVEIKRTVAAPSVFIFPPSDEQLKSGTASVVCLLNNFYPREAKVQWKVDNALQSGNSQESVTEQDSKDSTYSLSSTLTLSKADYEKHKVYACEVTHQGLSSPVTKSFNRGEGGEQKLISEEDL
chain 2: MEVQLVESGGGLVQPGGSLRLSCAASGFTIERYAMGWVRQAPGKGLEWVGTIYPWGDYTDYADSVKGRFTISRDNSKNTLYLQMNSLRDEDTAVYYCARSNYPNGMYYVMEYWGQGTLVTVSSASTKGPSVFPLAPSSKSTSGGTAALGCLVKDYFPEPVTVSWNSGALTSGVHTFPAVLQSSGLYSLSSVVTVPSSSLGTQTYICNVNHKPSNTKVDKKVEPGSGGDYKDDDDKSSDYKDDDDKHHHHHH
notes: also called Fag-TT; TNFαR-reactive Fab
Consider B1, for which the binding result in the test with Her-2 and in the test with biotinylated Her-2 was “no binding” in each case.

B2: Fab-HT (Fab)
chain 1: not shown
chain 2: B1 chain 2
notes: also called hybrid Fab (Her-2-reactive L chain and TNFαR-reactive H chain)
On to B2, for which, in the test with Her-2, the binding result is recorded as “no binding”.
